Measurements published in patent US20200339692A1 (JIANGSU HENGRUI MEDICINE, published 2020).
Where two headings read alike, the source gives them in different places.

What was measured:
[1] = target: T1, human PD-L1 (Cat. #10084-H08H, Sino Biological) (human, UniProt Q9NZQ7 19-239); experiment: SPR, Biacore X100, 1:1 Langmuir
T1 construct: Bought recombinant protein used in the Biacore test; also called hPDL1; hPD-L1
Protocol: (§1) According to the method in the manual of human anti-capture kit (Cat. A BR-1008-39, GE), the human anti-capture antibody was covalently coupled to biosensor chip CM5 (Cat. #BR-1000-12, GE) so that a certain amount of human PD-L1 (Cat. #10084-H08H, Sino Biological) monkey PD-L1 (Cat. #90251-C08H, Sino Biological), mouse PD-L1 (Cat. #50010-M08H, Sino Biological) were affinity captured. The affinity of PD-L1 antibody reacting with PD-L1 was measured with Biacore X100, GE instrument.

[2] = target: T2, monkey PD-L1 (Cat. #90251-C08H, Sino Biological) (monkey (cyno), UniProt G7PSE7 19-239); experiment: SPR, Biacore X100, 1:1 Langmuir
T2 construct: Bought recombinant protein used in the Biacore test; also called Monkey (cyno) PD-L1; Cyno PDL1
T2 sequence (G7PSE7 entry or part of it C08H C08H): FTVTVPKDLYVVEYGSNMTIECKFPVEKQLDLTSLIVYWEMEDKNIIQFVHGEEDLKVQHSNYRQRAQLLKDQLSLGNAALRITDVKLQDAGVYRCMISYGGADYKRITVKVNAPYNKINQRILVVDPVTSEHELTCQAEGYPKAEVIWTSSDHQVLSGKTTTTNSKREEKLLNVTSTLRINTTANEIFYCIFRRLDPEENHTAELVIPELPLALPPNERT
Protocol: as §1

[3] = target: T1, human PD-L1 (Cat. #10084-H08H, Sino …); experiment: SPR, Biacore X100, 1:1 Langmuir; remark: listed apart in the source
Protocol: as §1

[4] = target: T2, monkey PD-L1 (Cat. #90251-C08H, Sino …); experiment: SPR, Biacore X100, 1:1 Langmuir; remark: listed apart in the source
Protocol: as §1

[5] = target: T3, human PD-L1 (ligand blocking test) (human, UniProt Q9NZQ7 19-238, limits assumed); experiment: blocking of B7-1 binding to human PD-L1, PD-L1 1 ug/ml; competitor B7-1
T3 sequence (Q9NZQ7 19-238 limits assumed): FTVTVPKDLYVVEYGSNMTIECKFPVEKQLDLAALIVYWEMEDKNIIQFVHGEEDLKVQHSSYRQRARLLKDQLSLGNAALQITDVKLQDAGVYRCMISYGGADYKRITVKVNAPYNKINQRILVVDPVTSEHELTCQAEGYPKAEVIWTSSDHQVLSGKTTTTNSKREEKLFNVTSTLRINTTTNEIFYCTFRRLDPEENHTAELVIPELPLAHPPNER

[6] = target: T4, mouse PD-L1 (Cat. #50010-M08H, Sino Biological) (mouse, UniProt Q9EP73 19-238); experiment: SPR, Biacore X100
T4 construct: Bought recombinant protein used in the Biacore test
T4 sequence (Q9EP73 19-238 limits assumed, stated change not applied): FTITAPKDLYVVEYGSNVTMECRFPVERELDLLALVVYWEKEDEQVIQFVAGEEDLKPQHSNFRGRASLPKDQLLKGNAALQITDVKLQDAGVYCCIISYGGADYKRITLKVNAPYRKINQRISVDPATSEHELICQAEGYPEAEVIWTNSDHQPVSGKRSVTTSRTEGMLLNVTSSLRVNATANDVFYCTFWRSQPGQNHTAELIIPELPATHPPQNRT
Protocol: as §1

[7] = target: T3, human PD-L1 (ligand blocking test); experiment: blocking of human PD-L1/PD-1 binding, PD-L1 10 ug/ml; competitor PD-1
[8] = target: T1, human PD-L1 (Cat. #10084-H08H, Sino …); experiment: SPR, Biacore X100
Protocol: as §1

[9] = target: T2, monkey PD-L1 (Cat. #90251-C08H, Sino …); experiment: SPR, Biacore X100
Protocol: as §1

[10] = target: T4, mouse PD-L1 (Cat. #50010-M08H, Sino …); experiment: SPR, Biacore X100, 1:1 Langmuir
Protocol: as §1

[11] = target: mouse PD-L1 (ligand blocking test) (mouse, UniProt Q9EP73 19-238, limits assumed); experiment: blocking of mouse PD-L1/PD-1 binding, PD-L1 5 ug/ml; competitor PD-1
Sequence of mouse PD-L1 (ligand blocking test) (Q9EP73 19-238 limits assumed): as the sequence (Q9EP73 19-238 limits assumed, stated change not applied) above

T1 sequence (Q9NZQ7 19-239 limits assumed): as the sequence (G7PSE7 entry or part of it C08H C08H) above, with T33A, S34A, N62S, Q68R, R82Q, L173F, A185T, I192T, L215H counted along it

B1: HRP00052: 24D5(GF)IgG4(AA)(S228P) (antibody)
heavy: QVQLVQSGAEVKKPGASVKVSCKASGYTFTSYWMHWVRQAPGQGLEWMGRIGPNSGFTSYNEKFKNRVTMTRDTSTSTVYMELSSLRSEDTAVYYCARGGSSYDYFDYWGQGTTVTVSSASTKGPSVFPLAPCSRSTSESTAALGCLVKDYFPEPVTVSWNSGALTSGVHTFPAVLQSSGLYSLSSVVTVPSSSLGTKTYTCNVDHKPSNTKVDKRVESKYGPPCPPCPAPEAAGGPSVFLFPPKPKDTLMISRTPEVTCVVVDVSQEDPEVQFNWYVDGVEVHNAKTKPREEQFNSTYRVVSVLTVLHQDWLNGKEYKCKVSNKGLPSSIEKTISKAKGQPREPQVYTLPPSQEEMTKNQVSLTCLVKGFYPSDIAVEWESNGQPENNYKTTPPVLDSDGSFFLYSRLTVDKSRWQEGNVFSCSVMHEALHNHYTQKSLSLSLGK
light: DIVLTQSPASLAVSPGQRATITCRASESVSIHGTHLMHWYQQKPGQPPKLLIYAASNLESGVPARFSGSGSGTDFTLTINPVEAEDTANYYCQQSFEDPLTFGQGTKLEIKRTVAAPSVFIFPPSDEQLKSGTASVVCLLNNFYPREAKVQWKVDNALQSGNSQESVTEQDSKDSTYSLSSTLTLSKADYEKHKVYACEVTHQGLSSPVTKSFNRGEC
notes: Parent antibody from WO2017084495A1
With B1 the Kd [1] was 0.11 nM, the koff [1] was 0.000139 s⁻¹ and the kon [1] was 1.26e+06 M⁻¹ s⁻¹. It also gave a Kd [2] of 0.114 nM, a koff [2] of 0.000143 s⁻¹ and a kon [2] of 1.26e+06 M⁻¹ s⁻¹. For the same binder, the Kd [3] was 0.0672 nM, the koff [3] was 0.000116 s⁻¹ and the kon [3] was 1.73e+06 M⁻¹ s⁻¹. It also gave a Kd [4] of 0.062 nM, a koff [4] of 9.38e-05 s⁻¹ and a kon [4] of 1.51e+06 M⁻¹ s⁻¹. The IC50 [5] was 1.23 ng/mL, the binding result [6] was “no binding” and the IC50 [7] was 0.242 ng/mL.

B2: H21L68 (antibody, human IgG1, kappa, V domains shown)
VH: QVQLVQSGAEVKKPGASVKVSCKASGYTFTDKWMMWVRQAPGQGLEWMGRITPSSGFAMYNEKFKNRVTMTRDTSTSTVYMELSSLRSEDTAVYYCARGGSSYDYFDYWGQGTTVTVSS
VL: DIVLTQSPASLAVSPGQRATITCRASESVSIHGTHLMHWYQQKPGQPPKLLIYVASNVWSGVPARFSGSGSGTDFTLTINPVEAEDTANYYCQQSFEDPLTFGQGTKLEIKR
notes: also called 24D5 H21 and 24D5 L68
B2: no binding [8]; no binding [9].

B3: H5L11 (antibody, human IgG1, kappa, V domains shown)
VH: QVQLQESGPGLVKPSQTLSLTCTVSGGSISDGSAYWSWIRQHPGKGLEYIGFISRAGSTYNTPSLKGRVTISRDTSKNQFSLKLSSVTAADTAVYYCARSGGWLAPFDYWGRGTLVTVSS
VL: DIVMTQSPDSLAVSLGERATINCKSSQSLFYHSNQKHSLAWYQQKPGQPPKLLIYGASTRESGVPDRFSGSGSGTDFTLTISSLQAEDVAVYYCQQYYGYPYTFGGGTKVEIKR
notes: from the HRP00049 mutant library; also called 9-2 H5 and 9-2 L11
For B3, the Kd [10] was 69.6 nM, the koff [10] was 0.0564 s⁻¹ and the kon [10] was 811000 M⁻¹ s⁻¹. For the same binder, the Kd [3] was 0.203 nM, the koff [3] was 0.000124 s⁻¹ and the kon [3] was 611000 M⁻¹ s⁻¹. The Kd [4] was 0.211 nM, the koff [4] was 0.000121 s⁻¹ and the kon [4] was 572000 M⁻¹ s⁻¹. It also gave an IC50 [5] of 1.45 ng/mL, an IC50 [11] of 0.927 ng/mL and an IC50 [7] of 0.168 ng/mL.
